Measured values published in the supplement of paper PMC10567573.
± gives the standard deviation.

Assay: protein stability index of a GFP-peptide fusion (GPS, HEK-293T) (PSI 1-6); higher = more stable
[1] = treatment: DMSO, c terminus: a fixed tail appended
[2] = treatment: MLN4924 1 uM, 8 h, c terminus: a fixed tail appended
[3] = treatment: DMSO, c terminus: native
[4] = treatment: MLN4924 1 uM, 8 h, c terminus: native
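Further: 24-mer peptide tiles fused after GFP, lentivirally expressed, FACS-sorted into six equal bins by GFP/DsRed ratio, decoded by Illumina sequencing, PSI is the read-weighted mean bin number.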

Row | Sequence | protein stability index [1] | protein stability index [2] | protein stability index [3] | protein stability index [4]
1 | LRQLRELEEQFALEAGGYQAGAAR [PRPH] | 4.07 ± 0.3 | 4.24 ± 0.084 |  | 
2 | SRSYSPRRSRGSPRYSPRHSRSRS [SRSF1] | 5.39 ± 0.24 | 5.5 ± 0.25 |  | 
3 | KQNPSRQEVTKLQQQVKTNGAGVT [FBXO28] | 4.68 ± 0.2 | 4.47 ± 0.35 |  | 
4 | TRKREDAEHNLVLFRKDVDDATLS [PRPH] | 4.77 ± 0.18 | 4.73 ± 0.097 |  | 
5 | DELIPEYLNFIRGVVDSEDLPLNI [HSP90AB1] | 3.22 ± 0.38 | 3.3 ± 0.47 |  | 
6 | LPSHPLELSEKNFQLNQDKMNFST [POMP] | 3.84 ± 0.29 | 3.78 ± 0.21 |  | 
7 | IAIARLRGSDLKVLEVTEESIDFD [FBXO33] | 2.73 ± 0.3 | 2.77 ± 0.47 |  | 
8 | ARGPGPEGGGGGSYFSGQGSDTGA [JUNB] | 5.11 ± 0.27 | 4.91 ± 0.18 |  | 
9 | GIAIVSVLVILISIVIFCLETLPE [KCNA3] | 2.21 ± 0.26 | 2.36 ± 0.46 |  | 
10 | PTKSHSFRAMCQNGKLVYPSCEEK [CFHR2] | 4.01 ± 0.32 | 4.25 ± 0.34 |  | 
11 | LFLGQGIQVSLYCQEWYARRHCPL [SOAT2] | 2.83 ± 0.46 | 2.57 ± 0.46 |  | 
12 | RESPSFKLEPMETERSPGPRLQEL [ZNF263] | 4.42 ± 0.14 | 4.51 ± 0.2 |  | 
13 | YAVLAAEPELQVGIDIMKTSFPGR [AASDHPPT] | 2.61 ± 0.28 | 2.73 ± 0.4 |  | 
14 | GGDEVDDSVSVNDIDLSLYIPRDV [ZC3H15] | 4.62 ± 0.13 | 4.45 ± 0.61 |  | 
15 | PAPTATVPAPQPPVTKPLFPSAGQ [ZNF207] | 4.82 ± 0.39 | 4.8 ± 0.18 |  | 
16 | RADQLCQQELRELRRELELLGRER [PRPH] | 3.45 ± 0.17 | 3.37 ± 0.56 |  | 
17 | IQWKNHDQNNHNTDRSSHKDSMN [EDNRA] |  |  | 5.36 ± 0.29 | 5.49 ± 0.23
18 | GASSPAAYDEALAELHAHGPAAFV [ZSWIM9] | 3.87 ± 0.22 | 3.99 ± 0.19 |  | 
19 | TRLEQEIATYRSLLEGQDAKMAGI [KRT15] | 3.7 ± 0.22 | 3.72 ± 0.18 |  | 
20 | KSVLIPVYGVSKETFLSFLEYLYT [RHOBTB3] | 2.24 ± 0.38 | 2.22 ± 0.15 |  | 
21 | QSMSQTRELLLDGGYLQRTTYDRR [RSPH3] | 3.85 ± 0.13 | 3.77 ± 0.052 |  | 
22 | YCLTCEVPTCSMCKVFGIHKACEV [TRIM63] | 2.69 ± 0.45 | 2.8 ± 0.33 |  | 
23 | QIDAVGSKLKMLERKGWLAPSPGV [PKD2L1] | 3 ± 0.45 | 3.17 ± 0.22 |  | 

Row | Sequence | protein stability index [1] | protein stability index [2] | protein stability index [3] | protein stability index [4]
24 | LAGLTRPDVRPPLGRGLVGGQEEA [SEPHS2] | 4.86 ± 0.094 | 4.92 ± 0.083 |  | 
25 | KSVMLQIAATELEKEESRREAEKQ [TNNI2] | 5.07 ± 0.092 | 5.25 ± 0.26 |  | 
26 | MQRLVAWDPACLPLPPPPPAFKSM [CEBPB] | 2.63 ± 0.39 | 2.91 ± 0.39 |  | 
27 | LRKAVLKNLYKLASQCCGVHVISL [PTGFR] | 2.79 ± 0.5 | 2.73 ± 0.99 |  | 
28 | MELLCHEVDPVRRAVRDRNLLRDD [CCND2] | 4.28 ± 0.34 | 4.5 ± 0.12 |  | 
29 | HHSHSGPEISRIIVDPTTGKRYCR [PLK2] | 4.08 ± 0.16 | 4.32 ± 0.17 |  | 
30 | CGTKYPVEWAKFCCECGIRRMIL [ZC2HC1A] |  |  | 3.11 ± 0.39 | 3.53 ± 0.055
31 | QLQLKIIEIEDEAEKWQKEKDRIK [TRIM29] | 3.35 ± 0.24 | 3.6 ± 0.36 |  | 
32 | MTGTPKTQEGAKDLEVDMNKTEVT [ACSBG2] | 5.64 ± 0.35 | 5.68 ± 0.27 |  | 
33 | ITHSTYSLPASSYSQDPVYANGGL [NOL4L] | 2.96 ± 0.32 | 3.18 ± 0.2 |  | 
34 | KIEGHQDAVTAALLIPKEDGVITA [WDFY1] | 4.35 ± 0.23 | 4.4 ± 0.28 |  | 
35 | QHSHVVRYFSAWAEDDHMLIQNEY [WEE1] | 2.22 ± 0.14 | 2.24 ± 0.12 |  | 
36 | YVRPERLSPISHGNTIALFFRSLL [TCF25] | 2.59 ± 0.4 | 2.71 ± 0.42 |  | 
37 | DPMLDFYSDKNAKLTKESYPVVVA [TENT5D] | 3.77 ± 0.26 | 3.85 ± 0.23 |  | 
38 | ELADHIERLKANDNLKFSQEYESI [PTPRD] | 3.48 ± 0.25 | 3.74 ± 0.28 |  | 
39 | TDLPECEQSSARQKASLLIQQALT [TCF25] | 3.47 ± 0.36 | 3.66 ± 0.36 |  | 
40 | FEGEGDYEEGMYADWWQEPDAKGD [P3H4] | 5.31 ± 0.12 | 5.35 ± 0.16 |  | 
41 | FIGETLLSMNWAIVADILLYVVIP [SPNS1] | 3.29 ± 0.34 | 3.45 ± 0.25 |  | 
42 | SRAANQEQRANDLEQIMESVKSKI [CEP70] | 4.44 ± 0.22 | 4.49 ± 0.14 |  | 
43 | LTRKGLVRVVFFPLFSNWWIQVTS [PHTF1] | 3.06 ± 0.039 | 2.81 ± 0.71 |  | 
44 | QKFRNQFLSFSMYQSFVQFLQYYY [TMEM120A] | 2.42 ± 0.21 | 2.41 ± 0.17 |  | 
45 | PQKLKEVISLEKLNVGNERYVFEA [GAN] | 2.96 ± 0.21 | 2.92 ± 0.41 |  | 
46 | AAPLPERNSLSAIFNNVMTLCAML [SLC29A1] | 2.57 ± 0.14 | 2.57 ± 0.31 |  | 

Row | Sequence | protein stability index [1] | protein stability index [2] | protein stability index [3] | protein stability index [4]
47 | EENRLREELRQEWEAKQEKIKSEE [FAM50A] | 5.59 ± 0.14 | 5.52 ± 0.21 |  | 
48 | VHNIVIFMRTSVKISYIGLMTQSS [TMEM106C] | 2.83 ± 0.38 | 3.03 ± 0.32 |  | 
49 | NIPFFPDLQITDQVALLRLTWSEL [NR2F2] | 2.68 ± 0.45 | 2.12 ± 0.58 |  | 
50 | CGACLTQLFFFHLFVGVDCFLLTA [OR3A1] | 3.07 ± 0.2 | 3.02 ± 0.33 |  | 
51 | SHRSNLIRHQRIHTGEKPYTCHEC [ZNF263] | 3.16 ± 0.26 | 3.49 ± 0.23 |  | 
52 | PGTLLKTSPSPERSLLLKYARTPT [TRIM14] | 3.27 ± 0.22 | 3.15 ± 0.12 |  | 
53 | NQTAELRELLEFTHMYLQSDDEME [P3H4] | 4.83 ± 0.19 | 4.7 ± 0.18 |  | 
54 | DQNTVVTRQLSEENANLQEYVEKE [MTUS2] | 5.41 ± 0.25 | 5.51 ± 0.21 |  | 
55 | VLLQTSPYHVDSLLQLSDACRFQE [TCF25] | 2.22 ± 0.41 | 2.41 ± 0.56 |  | 
56 | GDASECPQATNAKDSGCSSPGAH [PPEF2] |  |  | 5.78 ± 0.1 | 5.57 ± 0.12
57 | RFRDFVDALEDSLEEVAVQQTGDD [PBXIP1] | 4.87 ± 0.44 | 4.9 ± 0.27 |  | 
58 | EKEMQKMNPYKIDIGAVYSHRPNQ [PRIM1] | 3.64 ± 0.43 | 3.44 ± 0.32 |  | 
59 | SMEIYGSAVADKLDNSRSILKRRY [CTDNEP1] | 3.28 ± 0.22 | 3.71 ± 0.41 |  | 
60 | DCLKACQEQIEAVLLNSLQQYRQD [CCND2] | 2.32 ± 0.35 | 2.33 ± 0.28 |  | 
61 | LNIVERYDPKENKWTRVASMSTRR [KLHL20] | 3.31 ± 0.084 | 3.39 ± 0.23 |  | 
62 | PIEVVTEGLLNTYQELLGLSFEQM [NLN] | 2.13 ± 0.37 | 2.29 ± 0.38 |  | 
63 | FNYSVGFKDLNESLNALEDQDLDA [APBB1IP] | 4.13 ± 0.33 | 3.98 ± 0.68 |  | 
64 | NKTEVTPRLWTTCRDGEVLLRLSK [ACSBG2] | 2.4 ± 0.22 | 2.37 ± 0.21 |  | 
65 | QFLLELLSDKSCQSFISWTGDGWE [ETS2] | 1.83 ± 0.38 | 1.85 ± 0.29 |  | 
66 | GRDWRHLPTITSELSGAPRCHTVP [PXN] | 3.44 ± 0.48 | 3.51 ± 0.17 |  | 
67 | VEMESEEQIAERKRKMVSWEASSL [KMT2E] | 3.67 ± 0.22 | 3.87 ± 0.73 |  | 
68 | HTDSKYEHAIAEAQKNMYFKTRLK [ZNF396] | 3.8 ± 0.22 | 3.5 ± 0.32 |  | 
69 | RCPVTVCGDVHGQFHDLMELFRIG [PPP2CA] | 2.2 ± 0.35 | 2.24 ± 0.14 |  | 

Row | Sequence | protein stability index [1] | protein stability index [2] | protein stability index [3] | protein stability index [4]
70 | TIRLRPRQVLCEKCKSTLSPPEAS [PWWP2B] | 3.23 ± 0.3 | 3.75 ± 0.6 |  | 
71 | ELEDKDGLQSAQPTEGQGSLLTNW [MYBL2] | 5.03 ± 0.36 | 5.35 ± 0.31 |  | 
72 | LRSFEGLMGTIKSKVSGGKRAWP [TPD52L3] |  |  | 2.94 ± 0.91 | 3.63 ± 0.26
73 | GLERRDWSPSPPATPEQGLSAFYL [SPDEF] | 3.03 ± 0.25 | 2.84 ± 0.15 |  | 
74 | YRHLLEGEDCKLPPQPCATACKPV [KRT36] | 3.97 ± 0.2 | 3.93 ± 0.11 |  | 
75 | LPVETLGPASRMDPESERALQAPH [PBXIP1] | 4.58 ± 0.43 | 4.84 ± 0.33 |  | 
76 | PGKDYDADRQCQLTFGPDSRHCPQ [ADAMTS4] | 4.68 ± 0.26 | 4.67 ± 0.24 |  | 
77 | YSKPGLSMRLLESKKGLSFFAFEH [TCF25] | 2.12 ± 0.33 | 2.08 ± 0.38 |  | 
78 | CLTAGPEVAAQLPAVRQLLPCARV [ZSWIM9] | 2.94 ± 0.21 | 2.97 ± 0.41 |  | 
79 | SPFAQELLDDGQQASPYHPGSCGA [ELF3] | 4.83 ± 0.31 | 5.04 ± 0.16 |  | 
80 | LSVRSVFFGVFQSFVVLLYILDNE [CLPTM1] | 3.19 ± 0.75 | 2.92 ± 0.55 |  | 
81 | YTFGSNQHGQLGTNTRRGSRAPCK [NEK8] | 4.27 ± 0.52 | 4.22 ± 0.39 |  | 
82 | DVSLPRGAFPPRGPRPVQSVVPEM [CDK4] | 4.01 ± 0.33 | 3.94 ± 0.33 |  | 
83 | ARVTGELTMTFPAGIVRVFSGTPP [FCHO1] | 2.51 ± 0.16 | 2.43 ± 0.23 |  | 
84 | KEDQFGRTPLMYCVLADRLDCADA [INVS] | 3.12 ± 0.41 | 3.26 ± 0.3 |  | 
85 | RIVHLQETCDLGKIKPEARRYLEK [NLN] | 3.25 ± 0.51 | 3.66 ± 0.67 |  | 
86 | IYVVGGYSWNNRCMVEIVQKYDPD [KLHL13] | 2.99 ± 1.6 | 2.91 ± 1.3 |  | 
87 | GALWGLQAQAVQTEQAVALLRDRT [SCARA5] | 3.07 ± 0.23 | 3.03 ± 0.31 |  | 
88 | VPPKDSAPKDSAPQDLAPQVSAHH [TBC1D10A] | 5.47 ± 0.19 | 5.4 ± 0.18 |  | 
89 | LVNTSENLSKSRKILRSMSRKVTT [VTI1B] | 3.33 ± 0.29 | 3.57 ± 0.22 |  | 
